Biological target: T1, biotinylated recombinant dimeric ErbB2 ECD-Fc fusion protein (Homo sapiens, UniProt P04626, biotin (EZ-Link NHS-PEG4-Biotin labeling kit))
T1 construct: ErbB2, extracellular domain (ECD); Cloned in the mammalian expression vector pSectag 2A; also called Bio-ECD; source: Expi293, transiently expressed, purified on Protein A, then biotinylated
Test: SPR; Biacore 3000, 25°C; Bio-ECD (1 μg/ml in PBS) immobilised on SA sensor chip at about 300 RU; antibodies 10 μg/ml in PBS flowed at 30 μl/min, 15 min dissociation; regeneration 50 mM NaOH; triplicate
Conditions: both partners purified

B1: HuA21 scFv-Fc fusion antibody (humanized anti-ErbB2 antibody HuA21, wild type) (scFv, V domains shown)
VH: QVQLVQSGAEVVKPGASVKISCKASGYSFTGYFINWVKQNPGQRLEWIGHISSSYATSTYNQKFKGKATLTVDTSASTAYMELSSLRSEDTAVYYCVRSGNYEEYAMDYWGQGTLVTVSS
VL: DIVLTQSPDSLAVSLGERVTINCKSSQTLLYSNNQKNYLAWYQQKPGQSPKLLISWAFTRKSGVPDRFSGSGSGTDFTLTISSVQAEDVAVYYCQQYSNYPWTFGAGTKLEIK
notes: the HuA21 scFv gene is deposited in GenBank under KP749832; also called HuA21 (wt); wild-type HuA21; source: Expi293, transfected; conditioned medium (screening ELISA); purified by Protein A and Superdex G200 size-exclusion chromatography (SPR)
**Q.** What does the source list for B1?
**A.** Kd: 4.03 nM; koff: 0.000262 s⁻¹; kon: 65000 M⁻¹ s⁻¹

From paper PMC4457833, “Effective Optimization of Antibody Affinity by Phage Display Integrated with High-Throughput DNA Synthesis and Sequencing Technologies” (PLoS ONE, 2015)
